{"source": "patent US9090686B2", "about": "“Antibodies for the treatment of HIV” (Pierre Fabre Medicament, priority 2009, dated 2015)", "molecules": {"B1": {"name": "515H7: murine anti-CXCR4 monoclonal antibody; light chain variable domain SEQ ID No. 7, heavy chain variable domain SEQ ID No. 8 (antibody, listed as Mus musculus, V domains shown)", "VH": "EVNLVESGGGLVQPGGSLRLSCATSGFTFTDNYMSWVRQPPGKALEWLGFIRNKANGYTTDYSASVRGRFTISRDNSQSILYLQMNALRAEDSATYYCARDVGSNYFDYWGQGTTLTVSS", "VL": "DIVMSQSPSSLAVSAGEKVTMSCKSSQSLFNSRTRKNYLAWYQQKPGQSPKLLIYWASARDSGVPARFTGSGSETYFTLTISRVQAEDLAVYYCMQSFNLRTFGGGTKLEIK"}, "B2": {"name": "301aE5: murine anti-CXCR4 monoclonal antibody; light chain variable domain SEQ ID No. 34, heavy chain variable domain SEQ ID No. 35 (antibody, listed as Mus musculus, V domains shown)", "VH": "QVQLKESGPGLVAPSQSLSITCTVSGFSLTDYGVYWVRQPPGKGLEWLGMIWGDGTTDYNSALKSRLSISKDNSKSQVFLKMNTLQTDDTARYYCARGRQFGFDYWGQGTTLTVSS", "VL": "DIVMSQSPSSLAVSAGEKVTMRCKSSQSLFNSRTRKNYLAWYQQKPGQSPKLLIFWASIRESGVPDRFTGSGSGTDFTLTISSVQAEDLAVYYCKQSYNLRTFGGGTKLEIK"}, "B3": {"name": "c515H7: chimeric antibody 515H7: murine variable domains fused to human Ckappa and IgG1/IgG2/IgG4 constant domains; isotype tested not stated (antibody, V domains shown)", "VH": "EVNLVESGGGLVQPGGSLRLSCATSGFTFTDNYMSWVRQPPGKALEWLGFIRNKANGYTTDYSASVRGRFTISRDNSQSILYLQMNALRAEDSATYYCARDVGSNYFDYWGQGTTLTVSS", "VL": "DIVMSQSPSSLAVSAGEKVTMSCKSSQSLFNSRTRKNYLAWYQQKPGQSPKLLIYWASARDSGVPARFTGSGSETYFTLTISRVQAEDLAVYYCMQSFNLRTFGGGTKLEIK"}}, "key": {"[1]": {"system": "HIV-1 primary isolate KON (X4 virus)", "assay": "HIV-1 KON replication in PHA-activated human PBMC, single cycle neutralization, p24 FACS (Example 5)", "assay_type": "cell-based", "details": "HIV-1 KON replication in PBMC, molar value in brackets", "procedure": "PBMC from normal donors seronegative for HIV-1 were isolated from buffy coats or cytapheresis by Ficoll-Hypaque gradient centrifugation. PBMC were activated in the presence of PHA in RPMI 1640 cell culture medium containing 25 mM HEPES, 5 ml penicillin (10000 U/ml)-streptomycin (10000 μg/ml) 2 mM L-glutamine, supplemented with 10% heat-inactivated FCS and were used as cellular targets in a single cycle neutralization assay. HIV-1 replication in primary human PBMC was performed by analyzing intracellular staining of viral p24 antigen by FACS analysis. Briefly, 25 μl per well of various dilutions of Mabs 515H7, 301aE5 and 12G5 (R&D Systems) or culture medium as control (RPMI 1640, 10% FCS, 0.1% IL-2), were incubated for 1 h at 37° C. with 25 μl per well of HIV-1 KON X4 primary isolate dilution, in duplicate. PHA-activated human PBMC (25 μl/well) at 20×10^6 cells/ml were added to the Mab/virus mixture in a 96-well plate (U-bottom, Costar 3599) and cultured for 24 to 36 hours at 37° C. in RPMI 1640 10% FCS and 0.1% IL-2. […] To detect HIV-infected PBMC, intracellular staining of viral p24 antigen was performed and analyzed by flow cytometry. […] The percentage of p24-positive cells in the different samples was determined by gating 20,000 events on a living cell population. The living cell subsets were analyzed for p24 expression relative to background staining of uninfected cells. […]"}, "[2]": {"system": "HIV-1 primary isolate UG93067 (dual X4/R5 virus)", "assay": "Neutralization assay, multiple rounds of replication on primary PBMC, isolate UG93067", "assay_type": "cell-based", "procedure": "This assay that combines serial dilutions of c515H7 Mab or Maraviroc or combination of both with serial dilutions of virus, analyzes multiple rounds of infection on PBMC (peripheral blood mononuclear cells). Briefly, quadruplicate 25-μl aliquots of serial dilutions (twofold) of c515H7 Mabs or Maraviroc or combination of both were each incubated with 25 μl of serial dilutions of virus in prehydrated 96-well filter plates (1.25-μm pore size, Durapor Dv; Millipore, Molsheim, France). […] On day 7, the presence of p24 in the culture supernatants was measured by ELISA and compared to that of the negative controls (cultures infected with dilutions of virus and maintained in the presence of 10^−6 M zidovudine [AZT]) to determine positive wells. […]\nThis assay that combines serial dilutions of hz515H7 Mab or Maraviroc or combination of both with serial dilutions of virus, analyzes multiple rounds of infection on PBMC (peripheral blood mononuclear cells). […] On day 7, the presence of p24 in the culture supernatants was measured by ELISA and compared to that of the negative controls (cultures infected with dilutions of virus and maintained in the presence of 10^−6 M zidovudine [AZT]) to determine positive wells. […]"}}, "data": [{"molecule": "B1", "values": [{"measurement": "IC90", "setting": "[1]", "result": 66, "unit": "nM"}]}, {"molecule": "B2", "values": [{"measurement": "IC90", "setting": "[1]", "result": 1000, "unit": "nM"}]}, {"molecule": "B3", "values": [{"measurement": "reduction of virus titer by combination of c515H7 and Maraviroc", "setting": "[2]; 10 μg/ml of each, only the combination reached it", "result": 90, "unit": "%"}, {"measurement": "inhibitory activity of the Mab compared with Maraviroc", "setting": "[2]; virus UG93067, PBMC", "result": "similar"}]}]}
